Assays:
[1] = system: His-tagged CTHRC1 expressed in Chinese hamster ovary cells (CHO)
[2] = system: myc-tagged CHO cell-expressed CTHRC1

Substance	cleavage of CTHRC1 (immunoblot after digestion) [2]	other results
highly purified bacterial collagenase (VII, Sigma)	–	cleavage of CTHRC1 (immunoblot after digestion) [1]: highly purified bacterial collagenase (Sigma) (FIG. 30), as well as MMP-1 (FIG. 31) cleave CTHRC1 near the N terminus
MMP-7	MMP-7 and thrombin do not cleave CTHRC1	–
matrix metalloprotease 1 (MMP-1)	–	cleavage of CTHRC1 (immunoblot after 15 and 60 minutes digest) [2]: MMP-1 (FIG. 31) cleave CTHRC1 near the N terminus
thrombin	MMP-7 and thrombin do not cleave CTHRC1	–

Reference: patent US20050147602
